Assay: soluble on expression in E. coli; label from the status in PepcDB or PDB records
For “MGSDKIHHHHHHMSEQYKQPNTPEPYWRQSTPLPDFKPLQNDLLVDVVIVGGGITGITTAYLLQKRGKKVVILEADRLFNGTTGHTTAKITAQHGLIYDEFIQHFGEDKAKQYYDAQMEAKTFIKNTVQDLSIDCDFQEHDAYIYTNANRYLAKLEREMRAYEKLQINGSLIDSMPLQVPIKKAIVMKGQAQFHPIAYLMKLVQDFIDRGGLIFEHTVATDVDKGEHRTVLTRDGHKVTCDYVVESSHFPFFDRGFYFSRMYADRSYVLGLKVKEPYPGGMYLSAEDPPRSIRHASYQGEDLWLISGETHKTGQGMDTDYHYEALESFSREMFNVTDISYRWSAQDLVTLDRMPYIGPATSNDPHILVATGFRKWGMTNGTIAAHVITDLIIGQVNAYQKLFAPQRFVADPSLRKFFSYNVDVAKHLIDGKTEKGSRTPESLQKDEGDVVNVNGKRAGGYRDTDGALHLVDTTCTHMGCEVSWNHGDRTWDCPCHGSRFSYDGEVVEGPAKKPLKKIDHT”, the “soluble on expression in E. coli” value was “not soluble”. In the case of “MGSDKIHHHHHHMGTVNRAVFLDRDGVINKDHGYVHQVDDFEYIEGVFEACLALKQQGYKLVVVTNQSGIARGMYTEDQFHSLTEWMDWNFADKGVDLDGIYYCPHHNEKGIGEYKVDCDCRKPKPGMLIDAAKFLKIDLSQSVMVGDKTDDMLAAKAAGVPTRILVRTGKAIADESDASVVLDSIADVPAFLKNHKAS”, the “soluble on expression in E. coli” value is reported as “not soluble”. For “MTTLTLAELATITGGELFGDPTALVSAVAPMDKAQLGHVTFLSNPKYSKHLGDCKATVIMVKTSERELCPSNALVVADPYVAFAKVAQALDSTPSPAHGIAPSAVIAEDAKLGHNVSIGANAVIESGVQLGDNVVIGAGCFIGKQARLGDNTKLWANVTIYHKVEIGSDCLIQSGTVIGADGFGYANERGEWIKIPQLGSVRIGDRVEIGACTTIDRGALDDTVIEDNVIIDNQLQIAHNVHIGYGSALAGGTVIAGSTRIGKYCIIGGASVINGHIEIADGVTITGMGMVMRSIEEKGMYSSGIPLQTNKEWRKTAARVHRIDDMHKRLKALEKLLEQSDTVQPDNSQAE”, the “soluble on expression in E. coli” value was “not soluble”. In the case of “MGSDKIHHHHHHMAKAKTAYSCTECGGQTPKWQGQCPSCMAWNTLVESVVEAAPSQNRYAALAQSSGLQKLADVEAADVPRHPTGIHEFDRVLGGGLVPGGVVLIGGDPGIGKSTLLLQTLCHIGGMRKAVYVSGEESAQQIAMRAKRLGLDAGPVELLAEISLEKILAILQQHKPEVAVIDSIQTLYSEALQSAPGSVAQVRECSAQLTRFAKQTGVTMILVGHVTKEGSLAGPRVLEHIVDTVLYFEGGQNSSFRLVRAFKNRFGAVNELGVFAMTEKGLREVSNPSALFLSHHAEQVAGSCITVTQEGSRPLLVEVQALVDEAHAPNPKRLCVGLEQNRLAMLLAVLHRHAGVACFDQDVFINAVGGVRISEPAVDLAVLLAIVSSLKNKPLNNKLIVFGEVGLAGEVRPVQRGQERLREAAKLGFTHAIVPKANLPKQVIDGLDVKGVERLDQALQLLRNG”, the “soluble on expression in E. coli” value is reported as “not soluble”. In the case of “MSLNEKEINYEEVMAKIDPENGIQVEIPRGANTDDIANILREHGVIKYPFWFKFVSKFNGYDGRYKSGKHIVNKDLKYKEIMEILCSNPVTTTVTIIEGKNTDQIADILSEKKVIDKEAFLEACNTEKFDYEFLKDIPENPQRENKLEGYLFPDTYFFDPKAGERAIIEKFLDNFDAKFKPEFYERAKELNMTVDEVIILASIIERETALPEERPIVSSVFHNRLKSSDPNLKKLESCATVQYVLYKTQGKMKEKLSDEDTKIDHPYNTYLYEGLPPGPICCPGLASIEAALYPDEESEYLYFVAKGDGSHEFSRTLAEHLEAVKKYQSNEGHHHHHH”, the “soluble on expression in E. coli” value is reported as “soluble”. In the case of “MGSDKIHHHHHHMTALDKTGLKILNFQQLLNQLTAKTQELFGDDVNTDQNSALGMYIRVISWLQNIVNQDLEAVYYSSFVDQAEGVSLDRLGSNYSVTRNPAQAATVMLDFTGTTGTVIPEETVYTTESGVEFEMVDTVTLDDSGKGSGEAVCTALDETGNVAPNTISVQGENIAGIESVTNPTQASGGTEIETDDAYRQRIHLSMESQPGPTYYGLYTGLYALPGVEQVQIVPNLTMETDSYGNPPKSLHFYVRGGREDDVAQAILDNIAAGIQTVGKIKEAVKDIGGHTHDVFFDTATVVPIYVNMSLKTSDDFNSETSPVEIVQAIKDYLSGLIMGDKVVFTKLYQAIYNISGVEYAQVTLGRDKSAMGMADIQLDQFETAVVANDSDVEVTVDDG”, the “soluble on expression in E. coli” value is reported as “not soluble”. With “MCLDQVMEGSATVHMAAPPDKIWTLIADVRNTGRFSPETFEAEWLDGATGPALGARFRGHVRRNGIGPVYWTVCEPGREFGFAVLLGDRPVNNWHYRLTPTADGTEVTESFRLPPSVLTTVYYRVFGGWLRQRRNIRDMTKTLQRIKDLVEAG” the “soluble on expression in E. coli” value was “soluble”. With “MSLHNVVISGTGLFTPANSISNEELVESFNTYVHQFNSDNAAAIERGEVQALTESNAAFIEKASGIKSRFVMDKDGILDPQRMAPRLPERSNDEWSVLCQMAVAAAEQALQRAGKTAADIDGVIVACSNLQRAYPAIAIEVQAALGIQGFGFDMNVACSSATFGIQAACNSVQLGQARAILMVNPEVCTGHLNFRDRDSHFIFGDAATAVVIERADLATSEHQFDIVSTKLLTQFSNNIRNNFGFLNRAAEEGIGARDKLFVQEGRKVFRDVCPMVAELIAAHLEENQLNVSDVKRFWLHQANLSMNHLIVKKLLCREASVEEAPVILDTYANTSSAGSVIAFHKYQDDLASGSLAVLSSFGAGYSIGSVLLRKREGHHHHHH” the “soluble on expression in E. coli” value was “soluble”. In the case of “MGSDKIHHHHHHMDVLKEVLSLDQDKFDQLKETSRDKTNETDDPFENYLKDCKFKAPSNKDQSPFAKLKSLQETHSNNEAAINIIIPQLIDYLTEFTNRLSNYTQDLDFIKKKSNELQSLLEYNSTKLAHISPMVNDLMIPPELIDDIIKGKINESWQDNITFIADKEEIYNKYRSNNLDQDNKDAENSAMLAPKDFDKLCQLLDILKNVILERSKRLIISKIKTLRSHNPVPSQRIQNKLLKVQKIFPFIRDNNLSLALELRQAYCYTMKWYYREYFSRYIRSLTILQFQQIDSQFALGNGLSTTSVSGFNNSPSLFFSNYLTTSASNAFYNKLPVTDEKIDKYFQIKKRLNILTQEDNTVMVSQIAENNTTKNYIEIGFKNLNLAILDNCTVEYHFLKDFFAMNGDNFEEINGLLEQIFQPTFDEATTYTQQLIQYNYDIFGVLISIRVANQLQFESERRGIPSMFDSFLNGQLIQLWPRFQQLVDFQCESLRKAAITTNVAKYAGNSSTSNSSPLTSPHELTVQFGKFLSSFLTLAITHKQSIDERSEPLYNSIIRLRNDFETVMTKCSKKTKSPERFLATNYMYLYNNLQQLHLHLNINDSDAQNYNFDSAENVGTKVANDDDNDSSVPLIIRETENHFKTLVEAFTRN”, the “soluble on expression in E. coli” value is reported as “not soluble”. In the case of “SLSTKNHFIFPTYVQMYPYSKDRPFLKQVREKLRYYGYKWLYQKQCSQLVDFLNTETQWQSLFTQDYYRTNTILTTFCDKRFSASERLTAITENLRLAEEKMGRSLCQQLLDQQHIVLTQLTEDLRLSLSINHIDPFEGYFSINIRNQNNERVYDSSFTFLSPNKLLIASIQGPSSDNAQELVKQATKALHGMRPMFMLVNGFKMLAEKWQCELVGIPHKAQGKYRLSARSKILFNYDEFWQENQGEYRHNYWQLPLHIERKQLEDIASKKRSMYRKRYEMLDQMALDIQQL”, the “soluble on expression in E. coli” value is reported as “not soluble”. For “MQPLPDPKPNTQKEHHPVDRNFIAMIDDLKTTQIPWQKPGHIMTEDEQKMWNATRMREYRRKSNETLEKSKSMLDGLKSQCTVNTVVLKNMLITKSVEDSVKLNAARFLGKSEKELMDIPEIKQMFQQYWNCRKTASNSHYEQRSLIYLDRVVSLQTEYLNYKANRNDSRSPSQLVKKIKDATMKAEAYEFFMDDKRVRKVIGELNEIDSKFKENIGAWLLQQLKIDSSLSHLLST”, the “soluble on expression in E. coli” value was “not soluble”. With “MSDSPKNAPRITDEADVVLIGAGIMSSTLGAMLRQLEPSWTQIVFERLDGPAQESSSPWNNAGTGHSALCELNYTPEVKGKVEIAKAVGINEKFQVSRQFWSHLVEEGVLSDPKEFINPVPHVSFGQGADQVAYIKARYEALKDHPLFQGMTYADDEATFTEKLPLMAKGRDFSDPVAISWIDEGTDINYGAQTKQYLDAAEVEGTEIRYGHEVKSIKADGAKWIVTVKNVHTGDTKTIKANFVFVGAGGYALDLLRSAGIPQVKGFAGFPVSGLWLRCTNEELIEQHAAKVYGKASVGAPPMSVPHLDTRVIEGEKGLLFGPYGGWTPKFLKEGSYLDLFKSIRPDNIPSYLGVAAQEFDLTKYLVTEVLKDQDKRMDALREYMPEAQNGDWETIVAGQRVQVIKPAGFPKFGSLEFGTTLINNSEGTIAGLLGASPGASIAPSAMIELLERCFGDRMIEWGDKLKDMIPSYGKKLASEPALFEQQWARTQKTLKLEEALEHHHHHH” the “soluble on expression in E. coli” value was “not soluble”.

— the DeepSol protein solubility set
